Source: article PMC8884472 (Molecular cell, 2022)

B1: recombinant KLHL12^6xHis (natural protein, UniProt Q53G59 1-568, looked up)
chain: MGGIMAPKDIMTNTHAKSILNSMNSLRKSNTLCDVTLRVEQKDFPAHRIVLAACSDYFCAMFTSELSEKGKPYVDIQGLTASTMEILLDFVYTETVHVTVENVQELLPAACLLQLKGVKQACCEFLESQLDPSNCLGIRDFAETHNCVDLMQAAEVFSQKHFPEVVQHEEFILLSQGEVEKLIKCDEIQVDSEEPVFEAVINWVKHAKKEREESLPNLLQYVRMPLLTPRYITDVIDAEPFIRCSLQCRDLVDEAKKFHLRPELRSQMQGPRTRARLGANEVLLVVGGFGSQQSPIDVVEKYDPKTQEWSFLPSITRKRRYVASVSLHDRIYVIGGYDGRSRLSSVECLDYTADEDGVWYSVAPMNVRRGLAGATTLGDMIYVSGGFDGSRRHTSMERYDPNIDQWSMLGDMQTAREGAGLVVASGVIYCLGGYDGLNILNSVEKYDPHTGHWTNVTPMATKRSGAGVALLNDHIYVVGGFDGTAHLSSVEAYNIRTDSWTTVTSMTTPRCYVGATVLRGRLYAIAGYDGNSLLSSIECYDPIIDSWEVVTSMGTQRCDAGVCVLREK

Tests used:
[1] = molecular target: recombinant CUL3/RBX1 (UniProt Q13618 1-768; P62877 1-108); assay: pull-down
Chain of recombinant CUL3/RBX1 (Q13618 whole entry, chain 1 of 2): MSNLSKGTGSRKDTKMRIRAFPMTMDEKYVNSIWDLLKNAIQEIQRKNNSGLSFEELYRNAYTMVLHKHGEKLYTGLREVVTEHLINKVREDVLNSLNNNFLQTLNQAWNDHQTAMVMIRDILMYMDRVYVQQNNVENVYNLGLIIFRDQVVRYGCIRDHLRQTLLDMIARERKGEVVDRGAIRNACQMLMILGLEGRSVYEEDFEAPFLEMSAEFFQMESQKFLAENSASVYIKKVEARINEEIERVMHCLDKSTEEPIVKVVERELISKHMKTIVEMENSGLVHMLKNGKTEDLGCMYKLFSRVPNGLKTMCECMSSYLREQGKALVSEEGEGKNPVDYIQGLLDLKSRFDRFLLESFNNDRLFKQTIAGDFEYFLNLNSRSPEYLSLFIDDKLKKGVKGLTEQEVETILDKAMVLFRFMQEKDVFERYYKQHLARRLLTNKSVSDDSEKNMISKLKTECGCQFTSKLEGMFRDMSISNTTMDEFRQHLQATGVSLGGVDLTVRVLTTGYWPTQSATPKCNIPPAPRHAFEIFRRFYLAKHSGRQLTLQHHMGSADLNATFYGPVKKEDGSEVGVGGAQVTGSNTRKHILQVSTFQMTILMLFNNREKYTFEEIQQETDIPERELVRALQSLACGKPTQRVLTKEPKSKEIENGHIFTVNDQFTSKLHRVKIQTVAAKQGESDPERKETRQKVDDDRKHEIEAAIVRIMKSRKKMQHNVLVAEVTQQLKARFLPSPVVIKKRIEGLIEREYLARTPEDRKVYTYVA
Chain of recombinant CUL3/RBX1 (P62877 whole entry, chain 2 of 2): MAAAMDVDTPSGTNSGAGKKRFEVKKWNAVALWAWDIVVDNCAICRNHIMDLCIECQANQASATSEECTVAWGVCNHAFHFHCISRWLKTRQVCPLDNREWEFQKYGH

[2] = molecular target: B1; assay: pull-down

Binder | binding result [1] | binding result [2]
B1 | binds | –
recombinant PEF1 (natural protein, UniProt Q9UBV8 1-284, looked up) MASYPYRQGCPGAAGQAPGAPPGSYYPGPPNSGGQYGSGLPPGGGYGGPAPGGPYGPPAGGGPYGHPNPGMFPSGTPGGPYGGAAPGGPYGQPPPSSYGAQQPGLYGQGGAPPNVDPEAYSWFQSVDSDHSGYISMKELKQALVNCNWSSFNDETCLMMINMFDKTKSGRIDVYGFSALWKFIQQWKNLFQQYDRDRSGSISYTELQQALSQMGYNLSPQFTQLLVSRYCPRSANPAMQLDRFIQVCTQLQVLTEAFREKDTAVQGNIRLSFEDFVTMTASRML | – | binds
